Test results from patent US5596072.

Target: functional human IL-4 receptor (hIL-4R) on TF-1 cells (human) (UniProt P24394)
Experiment: displacement of I^125-hIL-4 from TF-1 cells

B1: mouse IL-13 (mouse P600), E. coli-derived (ligand)
chain: APGPVPRSVSLPLTLKELIEELSNITQDQTPLCNGSMVWSVDLAAGGFCVALDSLTNISNCNAIYRTQRILHGLCNRKAPTTVSSLPDTKI
IC50: 0.2 nM
percent of the I^125-hIL-4 binding displaced: 70%
